{"source": "paper PMC9764456", "about": "(Cell reports, 2022)", "proteins": {"B1": {"name": "peroxiredoxin PRDX2 (enzyme, human (endogenous in RBCs), UniProt P32119 1-198, looked up)", "chain": "MASGNARIGKPAPDFKATAVVDGAFKEVKLSDYKGKYVVLFFYPLDFTFVCPTEIIAFSNRAEDFRKLGCEVLGVSVDSQFTHLAWINTPRKEGGLGPLNIPLLADVTRRLSEDYGVLKTDEGIAYRGLFIIDGKGVLRQITVNDLPVGRSVDEALRLVQAFQYTDEHGEVCPAGWKPGSDTIKPNVDDSKEYFSKHN"}}, "target": "the molecule itself", "experiment": "negative stain electron microscopy"}
{"protein": "B1", "values": [{"measurement": "stoichiometry N", "result": 10}]}
